Reference: patent US20040043401A1 (SLOAN KETTERING INSTITUTE FOR CANCER RESEARCH, published 2004)

Target: human prostate-specific membrane antigen (PSMA) (human, UniProt Q04609 1-750)
Assay: cell-based or functional assay

human prostate-specific membrane antigen (PSMA), sequence (Q04609 whole entry): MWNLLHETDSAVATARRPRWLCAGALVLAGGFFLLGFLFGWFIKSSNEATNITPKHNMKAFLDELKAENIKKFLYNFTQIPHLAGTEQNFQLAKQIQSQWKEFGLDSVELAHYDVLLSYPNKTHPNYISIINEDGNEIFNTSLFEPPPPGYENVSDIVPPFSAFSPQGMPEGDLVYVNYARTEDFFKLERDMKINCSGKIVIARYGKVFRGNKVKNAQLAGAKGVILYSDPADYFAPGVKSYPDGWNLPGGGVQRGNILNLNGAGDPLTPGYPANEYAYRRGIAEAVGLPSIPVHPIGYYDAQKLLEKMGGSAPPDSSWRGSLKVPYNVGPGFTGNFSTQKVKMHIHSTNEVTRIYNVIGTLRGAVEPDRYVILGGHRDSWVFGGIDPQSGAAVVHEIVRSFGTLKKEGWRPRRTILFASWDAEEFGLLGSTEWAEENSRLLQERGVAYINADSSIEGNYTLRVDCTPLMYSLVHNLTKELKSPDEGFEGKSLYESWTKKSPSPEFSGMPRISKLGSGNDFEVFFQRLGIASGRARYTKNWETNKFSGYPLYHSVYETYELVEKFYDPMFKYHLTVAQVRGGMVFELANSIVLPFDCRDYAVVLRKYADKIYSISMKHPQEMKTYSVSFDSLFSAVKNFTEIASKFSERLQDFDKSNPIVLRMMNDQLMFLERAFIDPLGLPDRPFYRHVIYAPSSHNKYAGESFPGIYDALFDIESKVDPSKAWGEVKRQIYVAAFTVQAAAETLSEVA

expansion in total cell number after re-stimulation with PSMA, seven days: 4 fold
expansion of transduced T cells on NIH3T3 cells expressing PSMA alone, seven days: 8.6 fold
B1: P28z fusion receptor (J591 scFv - human CD28 hinge, transmembrane and intracellular portions - intracellular domain of human TCR zeta) (receptor, not shown: a dimerising Fc or GST; small tags and cut ends)
chain: IEVMYPPPYLDNEKSNGTIIHVKGKHLCPSPLFPGPSKPFWVLVVVGGVLACYSLLVTVAFIIFWVRSKRSRLLHSDYMNMTPRRPGPTRKHYQPYAPPRDFAAYRSRVKFSRSADAPAYQQGQNQLYNELNLGRREEYDVLDKRRGRDPEMGGKPRRKNPQEGLYNELQKDKMAEAYSEIGMKGERRRGKGHDGLYQGLSTATKDTYDALHMQALPPR
